Results taken from US20180326084A1 (Genmab, published 2018).
Changes are numbered by the printed parent chain.

B1: IgG1-AXL-148 (antibody, V domains shown)
VH: EVQLLESGGGLVQPGGSLRLSCAASGFTFSSYAMTWVRQAPGKGLEWVSAISISGGSTFYADSVKGRFTISRDNSKNTLYLQMNSLRAEDTAVYYCRGYSGYVYDAFDFWGQGTMVTVSS
VL: DIQMTQSPSSLSASVGDRVTITCRASQGISNWLAWYQQKPEKAPKSLIYAASSLQSGVPSRFSGSGSGTDFTLTISSLQPEDFATYYCQQYNSYPLTFGGGTKVEIK
B2: IgG1-AXL-726 (antibody, V domains shown)
VH: QVQLQQWGAGLLKPSETLSLTCAIDGGSFSGYYWSWIRQPPGKGLEWIGEISHSGRTNYNPSLKSRVTISIDTSKNQFSLKLSSVAAADTAVYYCARFITMIRGAIITHFDYWGQGALVTVSS
VL: B1 VL with N31S, N92H, L96Y, G100Q, V104L
B3: IgG1-AXL-733 (antibody, V domains shown)
VH: QVQLVESGGGVVQPGRSLRLSCAASGFSFSTYAMHWVRQAPGKGLEWVAVISYDGDNKYSADSVKGRFTISRDNSKNTLYLQMNSLRAEDTAVYYCARGRKLGIDAFDIWGQGTMVTVSS
VL: AIQLTQSPSSLSASVGDRVTITCRASQGISSALAWYQQKPGKAPKLLIYDASSLESGVPSRFSGSGSGTDFTLTISGLQPEDFATYYCQQFNSYPFTFGPGTKVDIK
B4: IgG1-AXL-183 (antibody, V domains shown)
VH: QVQLQQWGAGLLKPSETLSLTCAVYGGSFSGYYWSWIRQPPGKGLEWIGEINQSGSTNYNPSLKSRVTISVDTSKNQFSLKLSSVTAADTSVYYCASGNWDHFFDYWGQGTLVTVSS
VL: DIQMTQSPSSVSASVGDRVTITCRASQGISSWLAWYQHKPGKAPKLLIYATSSLQSGVTSRFSGSGSGTDFTLTISSLQPEDFATYYCQQAKSFPWTFGQGTKVEIK

target: T1, AXLECDHis (human, UniProt P30530 26-447); assay: BLI (Octet), IgG on anti-human Fc sensor, AXLECDHis analyte
T1 construct: theoretical mass 46 kDa used; also called extracellular domain (ECD) of human AXL (aa 1-447) with a C-terminal His tag; soluble recombinant AXL extracellular domain

Binder | Kd [nM] | koff [s⁻¹] | kon [M⁻¹ s⁻¹]
B1 | 20 | 0.0044 | 230000
B2 | 0.6 | 0.00013 | 240000
B3 | 63 | 0.0097 | 160000
B4 | 10.2 | 0.00042 | 41000

Target: T2, Homo sapiens AXL-Mus musculus Ig2 domain (p33-AXL-mIg2) (human-mouse chimera, UniProt P30530 26-894)
T2 construct: Expressed in HEK293F cells; also called hsAXL-mmIg2; TH1021-mIg2
T2 chain: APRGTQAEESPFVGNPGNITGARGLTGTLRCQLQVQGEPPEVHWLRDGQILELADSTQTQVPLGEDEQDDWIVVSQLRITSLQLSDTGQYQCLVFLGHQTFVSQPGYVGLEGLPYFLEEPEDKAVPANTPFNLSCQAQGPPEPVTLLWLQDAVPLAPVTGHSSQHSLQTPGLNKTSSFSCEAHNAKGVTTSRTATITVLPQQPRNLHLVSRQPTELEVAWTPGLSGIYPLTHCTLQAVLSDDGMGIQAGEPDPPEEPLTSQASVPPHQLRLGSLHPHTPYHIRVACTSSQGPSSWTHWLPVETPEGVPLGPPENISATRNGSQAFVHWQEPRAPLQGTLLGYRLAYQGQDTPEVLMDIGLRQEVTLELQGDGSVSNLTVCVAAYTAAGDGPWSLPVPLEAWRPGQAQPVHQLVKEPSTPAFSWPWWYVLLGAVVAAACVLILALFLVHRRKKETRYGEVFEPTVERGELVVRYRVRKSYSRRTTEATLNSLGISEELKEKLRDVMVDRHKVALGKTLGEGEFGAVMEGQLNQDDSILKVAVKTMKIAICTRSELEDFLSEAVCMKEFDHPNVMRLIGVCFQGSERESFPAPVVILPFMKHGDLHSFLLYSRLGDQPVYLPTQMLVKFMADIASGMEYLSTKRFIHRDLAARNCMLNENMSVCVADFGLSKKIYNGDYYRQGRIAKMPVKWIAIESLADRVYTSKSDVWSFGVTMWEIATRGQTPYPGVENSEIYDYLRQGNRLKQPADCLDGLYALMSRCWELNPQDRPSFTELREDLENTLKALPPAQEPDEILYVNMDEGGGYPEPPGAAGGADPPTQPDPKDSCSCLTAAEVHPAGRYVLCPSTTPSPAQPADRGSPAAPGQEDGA
Assay: flow cytometry, 1 µg/mL antibody, transfected HEK293F cells

Binder | binding result
B2 | binds
B3 | binds
B4 | binds

Target: T3, Homo sapiens AXL-Mus musculus Ig1 domain (p33-AXL-mIg1) (human-mouse chimera, UniProt P30530 8-894)
T3 construct: Expressed in HEK293F cells; also called hsAXL-mmIg1; hsAXL-mmIgl
T3 chain: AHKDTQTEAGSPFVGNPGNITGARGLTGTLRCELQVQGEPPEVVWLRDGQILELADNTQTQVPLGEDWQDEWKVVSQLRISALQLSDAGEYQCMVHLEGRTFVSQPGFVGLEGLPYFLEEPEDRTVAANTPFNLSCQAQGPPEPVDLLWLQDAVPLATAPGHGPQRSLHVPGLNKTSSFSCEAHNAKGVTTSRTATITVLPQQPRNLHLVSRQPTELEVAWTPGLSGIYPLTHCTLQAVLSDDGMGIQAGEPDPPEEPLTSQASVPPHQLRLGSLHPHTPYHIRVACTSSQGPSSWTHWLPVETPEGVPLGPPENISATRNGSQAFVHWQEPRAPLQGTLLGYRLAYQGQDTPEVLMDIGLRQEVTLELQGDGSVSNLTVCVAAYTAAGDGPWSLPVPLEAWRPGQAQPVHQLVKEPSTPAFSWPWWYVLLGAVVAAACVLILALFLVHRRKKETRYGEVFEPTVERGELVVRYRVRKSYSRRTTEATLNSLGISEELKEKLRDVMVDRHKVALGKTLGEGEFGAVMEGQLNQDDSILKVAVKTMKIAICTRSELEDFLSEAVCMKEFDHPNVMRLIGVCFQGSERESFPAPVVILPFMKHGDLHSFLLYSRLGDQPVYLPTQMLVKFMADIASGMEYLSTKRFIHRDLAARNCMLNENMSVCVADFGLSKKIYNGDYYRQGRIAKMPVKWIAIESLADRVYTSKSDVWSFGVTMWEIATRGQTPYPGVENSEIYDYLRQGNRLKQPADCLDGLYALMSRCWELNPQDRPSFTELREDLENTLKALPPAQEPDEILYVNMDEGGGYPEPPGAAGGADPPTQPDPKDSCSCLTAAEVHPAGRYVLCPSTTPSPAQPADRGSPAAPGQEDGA
Assay: as above

Binder | binding result
B1 | binds
B2 | binds
B3 | binds
B4 | binds

target: T4, human AXL (full length) (human, UniProt P30530 26-894); assay: flow cytometry, HEK293T cells with full-length human AXL
T4 construct: also called TH1021-AXL; TH1021-hAXL

Binder | EC50 [µg/mL]
B1 | 0.094
B2 | 0.288
B3 | 0.176
B4 | 0.526
